Measurements taken from publication PMC4312047.
Values joined by “and” are separate entries in the source; they are usually repeats but may differ in a detail not shown here. Equal entries are not always repeated.

What was measured:
[1] = molecular target: PHB domain of B. subtilis YuaG (FloT) (Bacillus subtilis); assay: native gel or EMSA; blue native PAGE of the isolated PHB domain, according to Wittig et al.
[2] = molecular target: PHB domain of B. subtilis YuaG (FloT) (Bacillus subtilis); assay: SEC; Superose 6 10/300 GL, buffer A (50 mM TrisHCl pH 7.5, 150 mM NaCl, 5 mM MgCl2), RT; column calibrated with the BIO-RAD Gel Filtration Standard; fractions checked by SDS-PAGE and anti-His immunoblot
[3] = molecular target: PHB domain of B. subtilis YuaG (FloT) (Bacillus subtilis); assay: SDS-PAGE (SDS-resistant oligomers); purified PHB domain without cross-linking on denaturing SDS-PAGE; colloidal Coomassie blue staining or anti-His immunoblot

stoichiometry N [1]: 14 | stoichiometry N [2]: 14.8 | stoichiometry N [3]: 4 and 8
Substance: PHB domain of B. subtilis YuaG (FloT) (domain or fragment)
